Assays:
Talin-2 (Mus musculus) = Talin-2 (Mus musculus) (UniProt Q71LX4); assay: anti-HA co-IP from muscle, MS; CTRL 0
[1] = target: Ran GTPase-activating protein 1 (Mus musculus) (UniProt P46061); assay: anti-HA co-IP from muscle, MS; CTRL 0
[2] = target: Heterogeneous nuclear ribonucleoprotein H2 (Mus musculus) (UniProt P70333); assay: anti-HA co-IP from muscle, MS; CTRL 0
[3] = target: Nucleolar and coiled-body phosphoprotein 1 (Mus musculus) (UniProt E9Q5C9); assay: anti-HA co-IP from muscle, MS; CTRL 0
[4] = target: Calcium/calmodulin-dependent protein kinase type II subunit gamma (Mus musculus) (UniProt Q923T9); assay: anti-HA co-IP from muscle, MS; CTRL 0
[5] = target: Probable ubiquitin carboxyl-terminal hydrolase FAF-X (Mus musculus) (UniProt P70398); assay: anti-HA co-IP from muscle, MS; CTRL 0
[6] = target: Beta-sarcoglycan (Mus musculus) (UniProt P82349); assay: anti-HA co-IP from muscle, MS; CTRL 0
[7] = target: Voltage-dependent L-type calcium channel subunit alpha-1s (Mus musculus) (UniProt Q02789); assay: anti-HA co-IP from muscle, MS; CTRL 0
[8] = target: RNA methyltransferase 10 homolog C (Mus musculus) (UniProt Q3UFY8); assay: anti-HA co-IP from muscle, MS; CTRL 0
[9] = target: MAP7 domain-containing protein 1 (Mus musculus) (UniProt A2AJI0); assay: anti-HA co-IP from muscle, MS; CTRL 0
[10] = target: mRNA turnover protein 4 homolog (Mus musculus) (UniProt Q9D0I8); assay: anti-HA co-IP from muscle, MS; CTRL 0
[11] = target: NADH dehydrogenase [ubiquinone] iron-sulfur protein 6, mitochondrial (Mus musculus) (UniProt P52503); assay: anti-HA co-IP from muscle, MS; CTRL 0
[12] = target: von Willebrand factor A domain-containing protein 8 (Mus musculus) (UniProt Q8CC88); assay: anti-HA co-IP from muscle, MS; CTRL 0
[13] = target: Serine-threonine kinase receptor-associated protein (Mus musculus) (UniProt Q9Z1Z2); assay: anti-HA co-IP from muscle, MS; CTRL 0
[14] = target: DNA replication licensing factor MCM2 (Mus musculus) (UniProt P97310); assay: anti-HA co-IP from muscle, MS; CTRL 0
Basigin (Mus musculus) = Basigin (Mus musculus) (UniProt P18572); assay: anti-HA co-IP from muscle, MS; CTRL 0
[15] = target: Splicing factor 3A subunit 1 (Mus musculus) (UniProt Q8K4Z5); assay: anti-HA co-IP from muscle, MS; CTRL 0
[16] = target: Fatty acid-binding protein, adipocyte (Mus musculus) (UniProt P04117); assay: anti-HA co-IP from muscle, MS; CTRL 0
[17] = target: Nucleolar protein of 40 kDa (Mus musculus) (UniProt Q9ESX4); assay: anti-HA co-IP from muscle, MS; CTRL 0
Ankyrin-3 (Mus musculus) = Ankyrin-3 (Mus musculus) (UniProt G5E8K5); assay: anti-HA co-IP from muscle, MS; CTRL 0
[18] = target: Barrier-to-autointegration factor (Mus musculus) (UniProt O54962); assay: anti-HA co-IP from muscle, MS; CTRL 0
[19] = target: Coatomer subunit epsilon (Mus musculus) (UniProt O89079); assay: anti-HA co-IP from muscle, MS; CTRL 0
[20] = target: Heterogeneous nuclear ribonucleoprotein M (Mus musculus) (UniProt Q9D0E1); assay: anti-HA co-IP from muscle, MS; CTRL 0
[21] = target: Glutamate dehydrogenase 1, mitochondrial (Mus musculus) (UniProt P26443); assay: anti-HA co-IP from muscle, MS; CTRL 0
[22] = target: Alpha-1-syntrophin (Mus musculus) (UniProt Q61234); assay: anti-HA co-IP from muscle, MS; CTRL 1
[23] = target: Alpha-sarcoglycan (Mus musculus) (UniProt P82350); assay: anti-HA co-IP from muscle, MS; CTRL 1
[24] = target: Glypican-1 (Mus musculus) (UniProt Q9QZF2); assay: anti-HA co-IP from muscle, MS; CTRL 1
[25] = target: Caveolin-1 (Mus musculus) (UniProt P49817); assay: anti-HA co-IP from muscle, MS; CTRL 1
[26] = target: Ribosomal protein S6 kinase alpha-3 (Mus musculus) (UniProt P18654); assay: anti-HA co-IP from muscle, MS; CTRL 1
[27] = target: Protein-cysteine N-palmitoyltransferase HHAT-like protein (Mus musculus) (UniProt Q9D1G3); assay: anti-HA co-IP from muscle, MS; CTRL 1
[28] = target: Unconventional myosin-Ic (Mus musculus) (UniProt Q9WTI7); assay: anti-HA co-IP from muscle, MS; CTRL 1
[29] = target: Cullin-associated NEDD8-dissociated protein 2 (Mus musculus) (UniProt Q6ZQ73); assay: anti-HA co-IP from muscle, MS; CTRL 1
[30] = target: Annexin A6 (Mus musculus) (UniProt P14824); assay: anti-HA co-IP from muscle, MS; CTRL 5
[31] = target: Striated muscle-specific serine/threonine-protein kinase (Mus musculus) (UniProt Q62407); assay: anti-HA co-IP from muscle, MS; CTRL 5
[32] = target: Phosphorylase b kinase regulatory subunit alpha, skeletal muscle isoform (Mus musculus) (UniProt P18826); assay: anti-HA co-IP from muscle, MS; CTRL 5
[33] = target: Spectrin alpha chain, non-erythrocytic 1 (Mus musculus) (UniProt P16546); assay: anti-HA co-IP from muscle, MS; CTRL 5
Biglycan (Mus musculus) = Biglycan (Mus musculus) (UniProt P28653); assay: anti-HA co-IP from muscle, MS; CTRL 5
[34] = target: Eukaryotic translation initiation factor 5B (Mus musculus) (UniProt Q05D44); assay: anti-HA co-IP from muscle, MS; CTRL 5
[35] = target: Spectrin beta chain, non-erythrocytic 1 (Mus musculus) (UniProt Q62261); assay: anti-HA co-IP from muscle, MS; CTRL 5

Barrier-to-autointegration factor (Mus musculus), sequence (O54962 whole entry): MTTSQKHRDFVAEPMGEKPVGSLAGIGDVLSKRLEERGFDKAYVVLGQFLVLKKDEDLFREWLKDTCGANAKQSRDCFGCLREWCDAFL
Talin-2 (Mus musculus), sequence (Q71LX4 whole entry): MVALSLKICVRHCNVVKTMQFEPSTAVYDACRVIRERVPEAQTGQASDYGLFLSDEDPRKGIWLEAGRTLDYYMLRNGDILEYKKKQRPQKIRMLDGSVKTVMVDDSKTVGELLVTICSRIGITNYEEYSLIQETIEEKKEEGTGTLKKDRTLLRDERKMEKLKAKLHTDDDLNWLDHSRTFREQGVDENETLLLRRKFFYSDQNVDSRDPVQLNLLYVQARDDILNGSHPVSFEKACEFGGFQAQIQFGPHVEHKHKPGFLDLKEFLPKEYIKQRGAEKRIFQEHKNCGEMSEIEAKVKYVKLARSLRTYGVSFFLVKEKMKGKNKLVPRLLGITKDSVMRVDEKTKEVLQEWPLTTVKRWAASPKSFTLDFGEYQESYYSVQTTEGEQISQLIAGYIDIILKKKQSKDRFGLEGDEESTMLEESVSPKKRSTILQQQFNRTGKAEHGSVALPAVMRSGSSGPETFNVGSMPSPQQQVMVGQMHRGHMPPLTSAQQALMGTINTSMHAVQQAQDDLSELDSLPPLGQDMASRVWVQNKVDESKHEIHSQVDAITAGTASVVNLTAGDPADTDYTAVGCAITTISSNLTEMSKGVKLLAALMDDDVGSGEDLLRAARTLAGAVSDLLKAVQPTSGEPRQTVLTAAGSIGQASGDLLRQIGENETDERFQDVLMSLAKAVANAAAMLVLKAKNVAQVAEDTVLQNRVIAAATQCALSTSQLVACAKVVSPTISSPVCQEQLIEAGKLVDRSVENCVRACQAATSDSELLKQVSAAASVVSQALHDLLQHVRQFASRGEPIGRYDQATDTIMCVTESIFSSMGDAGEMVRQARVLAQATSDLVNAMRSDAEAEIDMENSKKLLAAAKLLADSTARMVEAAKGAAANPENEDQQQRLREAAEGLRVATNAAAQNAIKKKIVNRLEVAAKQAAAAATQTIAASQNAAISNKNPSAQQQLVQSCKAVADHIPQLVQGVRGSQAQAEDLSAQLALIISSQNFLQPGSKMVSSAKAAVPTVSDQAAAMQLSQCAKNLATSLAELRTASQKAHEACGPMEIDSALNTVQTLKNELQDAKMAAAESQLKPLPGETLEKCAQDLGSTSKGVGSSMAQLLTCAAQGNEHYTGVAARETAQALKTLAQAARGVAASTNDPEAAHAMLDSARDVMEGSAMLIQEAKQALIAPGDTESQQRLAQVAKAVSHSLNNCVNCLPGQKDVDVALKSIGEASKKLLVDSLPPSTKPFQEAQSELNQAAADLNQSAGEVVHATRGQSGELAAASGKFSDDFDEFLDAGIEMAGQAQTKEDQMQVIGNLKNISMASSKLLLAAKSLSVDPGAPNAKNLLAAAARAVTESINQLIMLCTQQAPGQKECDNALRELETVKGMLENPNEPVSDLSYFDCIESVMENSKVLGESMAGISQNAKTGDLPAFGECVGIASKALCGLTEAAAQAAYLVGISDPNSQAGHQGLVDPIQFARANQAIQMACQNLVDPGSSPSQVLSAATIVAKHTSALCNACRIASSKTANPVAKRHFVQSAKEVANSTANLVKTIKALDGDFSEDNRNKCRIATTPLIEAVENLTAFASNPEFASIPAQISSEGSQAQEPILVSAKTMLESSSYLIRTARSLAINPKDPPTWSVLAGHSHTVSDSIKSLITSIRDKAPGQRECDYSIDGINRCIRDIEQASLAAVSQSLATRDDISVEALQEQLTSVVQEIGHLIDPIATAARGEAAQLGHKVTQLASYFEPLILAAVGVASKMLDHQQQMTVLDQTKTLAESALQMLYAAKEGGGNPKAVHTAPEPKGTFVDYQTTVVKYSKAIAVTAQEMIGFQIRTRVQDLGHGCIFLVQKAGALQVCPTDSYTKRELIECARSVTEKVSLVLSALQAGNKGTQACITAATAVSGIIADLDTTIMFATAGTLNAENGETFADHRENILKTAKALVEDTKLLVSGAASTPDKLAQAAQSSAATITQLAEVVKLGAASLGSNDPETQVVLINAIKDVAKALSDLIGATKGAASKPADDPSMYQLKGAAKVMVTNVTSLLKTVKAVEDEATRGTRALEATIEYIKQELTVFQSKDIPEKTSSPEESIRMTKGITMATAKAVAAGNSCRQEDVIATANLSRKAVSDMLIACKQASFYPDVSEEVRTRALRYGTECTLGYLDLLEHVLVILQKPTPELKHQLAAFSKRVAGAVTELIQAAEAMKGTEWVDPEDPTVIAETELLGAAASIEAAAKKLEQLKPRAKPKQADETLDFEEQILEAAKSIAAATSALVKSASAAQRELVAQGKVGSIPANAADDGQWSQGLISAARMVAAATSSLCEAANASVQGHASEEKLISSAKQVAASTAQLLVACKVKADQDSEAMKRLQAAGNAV
Protein-cysteine N-palmitoyltransferase HHAT-like protein (Mus musculus), sequence (Q9D1G3 whole entry): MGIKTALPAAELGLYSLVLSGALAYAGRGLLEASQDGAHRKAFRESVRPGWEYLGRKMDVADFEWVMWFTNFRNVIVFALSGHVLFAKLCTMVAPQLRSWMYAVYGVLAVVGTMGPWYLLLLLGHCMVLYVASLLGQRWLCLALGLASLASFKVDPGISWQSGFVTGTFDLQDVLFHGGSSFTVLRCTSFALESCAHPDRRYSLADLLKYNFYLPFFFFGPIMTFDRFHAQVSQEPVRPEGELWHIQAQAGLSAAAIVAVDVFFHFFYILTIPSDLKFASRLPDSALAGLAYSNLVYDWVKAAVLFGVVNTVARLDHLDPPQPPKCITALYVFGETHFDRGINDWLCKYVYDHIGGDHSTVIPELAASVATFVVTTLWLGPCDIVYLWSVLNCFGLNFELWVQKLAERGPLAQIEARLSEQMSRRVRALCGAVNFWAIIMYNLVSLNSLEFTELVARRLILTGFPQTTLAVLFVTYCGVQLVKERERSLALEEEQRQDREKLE
MAP7 domain-containing protein 1 (Mus musculus), sequence (A2AJI0 whole entry, the tested form may be a part): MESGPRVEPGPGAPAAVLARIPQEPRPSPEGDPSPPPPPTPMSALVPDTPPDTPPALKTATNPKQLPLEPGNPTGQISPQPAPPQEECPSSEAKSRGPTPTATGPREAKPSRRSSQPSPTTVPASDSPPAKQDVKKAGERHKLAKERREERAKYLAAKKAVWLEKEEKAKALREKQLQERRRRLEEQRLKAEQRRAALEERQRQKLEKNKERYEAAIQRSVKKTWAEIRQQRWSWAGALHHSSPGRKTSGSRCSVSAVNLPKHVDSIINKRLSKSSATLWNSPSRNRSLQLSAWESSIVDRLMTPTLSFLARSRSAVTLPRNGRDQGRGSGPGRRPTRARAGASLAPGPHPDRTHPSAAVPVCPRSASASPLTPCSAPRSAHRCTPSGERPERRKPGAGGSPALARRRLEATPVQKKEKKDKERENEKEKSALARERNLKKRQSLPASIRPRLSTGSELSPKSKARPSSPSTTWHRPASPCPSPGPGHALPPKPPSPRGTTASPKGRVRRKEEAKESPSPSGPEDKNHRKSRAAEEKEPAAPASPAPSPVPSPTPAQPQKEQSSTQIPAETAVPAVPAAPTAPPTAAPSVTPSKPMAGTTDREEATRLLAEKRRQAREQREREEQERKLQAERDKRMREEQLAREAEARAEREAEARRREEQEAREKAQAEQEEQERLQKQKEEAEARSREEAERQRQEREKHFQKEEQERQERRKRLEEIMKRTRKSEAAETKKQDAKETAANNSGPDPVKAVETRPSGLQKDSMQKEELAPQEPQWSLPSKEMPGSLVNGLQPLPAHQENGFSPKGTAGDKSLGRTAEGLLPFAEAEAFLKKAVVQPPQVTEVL
Alpha-1-syntrophin (Mus musculus), sequence (Q61234 whole entry): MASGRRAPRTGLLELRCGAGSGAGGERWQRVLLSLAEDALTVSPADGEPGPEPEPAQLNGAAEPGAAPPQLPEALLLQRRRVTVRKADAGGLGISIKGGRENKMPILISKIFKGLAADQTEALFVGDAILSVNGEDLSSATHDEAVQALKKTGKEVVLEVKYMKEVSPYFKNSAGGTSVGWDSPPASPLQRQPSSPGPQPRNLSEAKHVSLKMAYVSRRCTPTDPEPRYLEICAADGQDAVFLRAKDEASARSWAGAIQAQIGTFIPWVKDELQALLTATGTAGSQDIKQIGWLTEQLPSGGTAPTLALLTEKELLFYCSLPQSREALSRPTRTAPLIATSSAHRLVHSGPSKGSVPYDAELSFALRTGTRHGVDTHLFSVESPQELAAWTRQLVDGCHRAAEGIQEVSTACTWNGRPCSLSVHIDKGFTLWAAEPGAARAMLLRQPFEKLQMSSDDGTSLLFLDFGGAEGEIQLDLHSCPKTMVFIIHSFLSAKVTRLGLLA
Glutamate dehydrogenase 1, mitochondrial (Mus musculus), sequence (P26443 54-558 limits assumed): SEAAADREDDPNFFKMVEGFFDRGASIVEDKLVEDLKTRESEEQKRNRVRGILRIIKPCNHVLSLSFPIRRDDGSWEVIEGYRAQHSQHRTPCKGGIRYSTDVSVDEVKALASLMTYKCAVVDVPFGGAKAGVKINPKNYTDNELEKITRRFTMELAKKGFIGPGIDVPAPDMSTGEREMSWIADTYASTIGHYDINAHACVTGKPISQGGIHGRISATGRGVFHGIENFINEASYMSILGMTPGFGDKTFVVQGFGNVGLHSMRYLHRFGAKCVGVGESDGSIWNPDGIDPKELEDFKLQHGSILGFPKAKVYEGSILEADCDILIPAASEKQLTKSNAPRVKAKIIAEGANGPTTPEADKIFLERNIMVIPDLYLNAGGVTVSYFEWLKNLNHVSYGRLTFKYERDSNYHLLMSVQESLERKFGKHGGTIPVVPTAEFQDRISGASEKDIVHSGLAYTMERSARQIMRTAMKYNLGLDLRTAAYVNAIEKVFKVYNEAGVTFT
Fatty acid-binding protein, adipocyte (Mus musculus), sequence (P04117 2-132 limits assumed): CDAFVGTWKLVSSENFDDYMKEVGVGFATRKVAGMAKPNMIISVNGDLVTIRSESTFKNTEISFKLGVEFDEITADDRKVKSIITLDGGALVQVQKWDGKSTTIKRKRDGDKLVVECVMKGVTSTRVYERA
NADH dehydrogenase [ubiquinone] iron-sulfur protein 6, mitochondrial (Mus musculus), sequence (P52503 21-116 limits assumed): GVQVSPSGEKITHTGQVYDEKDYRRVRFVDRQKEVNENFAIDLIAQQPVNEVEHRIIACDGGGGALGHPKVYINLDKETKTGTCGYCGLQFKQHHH

AAV9-BVES-HA (IP-MS count) (Talin-2 (Mus musculus)): 3
AAV9-BVES-HA (IP-MS count) [1]: 2
AAV9-BVES-HA (IP-MS count) [2]: 4
AAV9-BVES-HA (IP-MS count) [3]: 3
AAV9-BVES-HA (IP-MS count) [4]: 13
AAV9-BVES-HA (IP-MS count) [5]: 3
AAV9-BVES-HA (IP-MS count) [6]: 9
AAV9-BVES-HA (IP-MS count) [7]: 13
AAV9-BVES-HA (IP-MS count) [8]: 2
AAV9-BVES-HA (IP-MS count) [9]: 2
AAV9-BVES-HA (IP-MS count) [10]: 2
AAV9-BVES-HA (IP-MS count) [11]: 2
AAV9-BVES-HA (IP-MS count) [12]: 4
AAV9-BVES-HA (IP-MS count) [13]: 2
AAV9-BVES-HA (IP-MS count) [14]: 4
AAV9-BVES-HA (IP-MS count) (Basigin (Mus musculus)): 4
AAV9-BVES-HA (IP-MS count) [15]: 4
AAV9-BVES-HA (IP-MS count) [16]: 2
AAV9-BVES-HA (IP-MS count) [17]: 2
AAV9-BVES-HA (IP-MS count) (Ankyrin-3 (Mus musculus)): 242
AAV9-BVES-HA (IP-MS count) [18]: 3
AAV9-BVES-HA (IP-MS count) [19]: 2
AAV9-BVES-HA (IP-MS count) [20]: 2
AAV9-BVES-HA (IP-MS count) [21]: 6
AAV9-BVES-HA (IP-MS count) [22]: 11
AAV9-BVES-HA (IP-MS count) [23]: 5
AAV9-BVES-HA (IP-MS count) [24]: 11
AAV9-BVES-HA (IP-MS count) [25]: 8
AAV9-BVES-HA (IP-MS count) [26]: 20
AAV9-BVES-HA (IP-MS count) [27]: 5
AAV9-BVES-HA (IP-MS count) [28]: 7
AAV9-BVES-HA (IP-MS count) [29]: 16
AAV9-BVES-HA (IP-MS count) [30]: 17
AAV9-BVES-HA (IP-MS count) [31]: 16
AAV9-BVES-HA (IP-MS count) [32]: 23
AAV9-BVES-HA (IP-MS count) [33]: 24
AAV9-BVES-HA (IP-MS count) (Biglycan (Mus musculus)): 16
AAV9-BVES-HA (IP-MS count) [34]: 14
AAV9-BVES-HA (IP-MS count) [35]: 19
Substance: human BVES fused with 3xHA tag (from UniProt Q8NE79 1-360)

From US20250340902A1, “GENE THERAPY FOR BVES-RELATED DISORDERS” (OHIO STATE INNOVATION FOUNDATION, priority 2022, published 2025)
